Reference: paper PMC11144326, “Structure–function characterization of two enzymes from novel subfamilies of manganese peroxidases secreted by the lignocellulose-degrading Agaricales fungi Agrocybe pediades and Cyathus striatus” (Biotechnology for Biofuels and Bioproducts, 2024)
Read-outs that look alike come from different tables or passages of the source.

Assays:
[1] = system: Ape-MnP1; assay: steady-state oxidation, coerulignone formation at […] nm; format: biochemical, Agrocybe pediades; details: 0.3 mM H2O2, 100 mM sodium tartrate, optimal pH, 25 °C; read-out: Ape-MnP1 Q333P
[2] = system: Ape-MnP1; details: read-out: Ape-MnP1 Q333P; 0.3 mM H2O2, 100 mM sodium tartrate, optimal pH, 25 °C
[3] = substrate: COc1cccc(OC)c1O; assay: purified protein; format: biochemical, Cyathus striatus; details: 0.3 mM H2O2, 100 mM sodium tartrate, optimal pH, 25 °C
[4] = substrate: CCn1c(=NN=c2sc3cc(S(=O)(=O)O)ccc3n2CC)sc2cc(S(=O)(=O)O)ccc21; assay: purified protein; format: biochemical, Cyathus striatus; details: 0.3 mM H2O2, 100 mM sodium tartrate, optimal pH, 25 °C
[5] = substrate: COc1cccc(OC)c1O; assay: purified protein; format: biochemical, Agrocybe pediades; details: 0.3 mM H2O2, 100 mM sodium tartrate, optimal pH, 25 °C
[6] = substrate: CCn1c(=NN=c2sc3cc(S(=O)(=O)O)ccc3n2CC)sc2cc(S(=O)(=O)O)ccc21; assay: purified protein; format: biochemical, Agrocybe pediades; details: 0.3 mM H2O2, 100 mM sodium tartrate, optimal pH, 25 °C

| Molecule | Km [3] [µM] | kcat [3] [s⁻¹] | kcat/Km [3] [M⁻¹ s⁻¹] | Km [4] [µM] | kcat [4] [s⁻¹] | kcat/Km [4] [M⁻¹ s⁻¹] | also measured |
| --- | --- | --- | --- | --- | --- | --- | --- |
| COc1cccc(OC)c1O [DMP] |  |  |  |  |  |  | Km [1]: 2900 ± 590 µM |
| CCn1c(=NN=c2sc3cc(S(=O)(=O)O)ccc3n2CC)sc2cc(S(=O)(=O)O)ccc21 [ABTS] |  |  |  |  |  |  | Km [2]: 1890 ± 250 µM |
| Cst-MnP1 (Cyathus striatus) (protein) VTCPDGHVTANRACCALFPVVQNLQENLFDGGECGEEAHSALRLSFHDAIGFSLNSNKGGGADGSILLFNATELTFHANGGIDDITSRQFPVFETTGLTPGDFVHLAGAVGTANCPGAPRLQFMFGRPPPIAPAPDLTVPEPTDDVDAILARFADAGFDASEVVALLSSHTIAAADVVDVTIPGTPFDSTVGTFDTQVFLEVLLAGRSFPGNGSQPGEVLSPLAGEMRLQSDFVVSRDSRTACLWQAMVNNQQLMVSSFAAAMAKLQVLGQNVNTMVDCSDVIPEPAPFAGPIKFPASFSMADVEQACASTFPQIQTVAGPAPTVAPVPGS | 4650 ± 560 | 4.2 ± 0.2 | 980 ± 120 | 3250 ± 220 | 60 ± 1.4 | 18000 ± 1300 |  |
| Cst-MnP1 (Cyathus striatus; S40A) (protein) VTCPDGHVTANRACCALFPVVQNLQENLFDGGECGEEAHAALRLSFHDAIGFSLNSNKGGGADGSILLFNATELTFHANGGIDDITSRQFPVFETTGLTPGDFVHLAGAVGTANCPGAPRLQFMFGRPPPIAPAPDLTVPEPTDDVDAILARFADAGFDASEVVALLSSHTIAAADVVDVTIPGTPFDSTVGTFDTQVFLEVLLAGRSFPGNGSQPGEVLSPLAGEMRLQSDFVVSRDSRTACLWQAMVNNQQLMVSSFAAAMAKLQVLGQNVNTMVDCSDVIPEPAPFAGPIKFPASFSMADVEQACASTFPQIQTVAGPAPTVAPVPGS |  |  |  | 2990 ± 455 | 112 ± 4.6 | 37500 ± 5900 |  |
| Cst-MnP1 (Cyathus striatus; E36A) (protein) VTCPDGHVTANRACCALFPVVQNLQENLFDGGECGAEAHSALRLSFHDAIGFSLNSNKGGGADGSILLFNATELTFHANGGIDDITSRQFPVFETTGLTPGDFVHLAGAVGTANCPGAPRLQFMFGRPPPIAPAPDLTVPEPTDDVDAILARFADAGFDASEVVALLSSHTIAAADVVDVTIPGTPFDSTVGTFDTQVFLEVLLAGRSFPGNGSQPGEVLSPLAGEMRLQSDFVVSRDSRTACLWQAMVNNQQLMVSSFAAAMAKLQVLGQNVNTMVDCSDVIPEPAPFAGPIKFPASFSMADVEQACASTFPQIQTVAGPAPTVAPVPGS | 2120 ± 500 | 2.62 ± 0.17 | 1240 ± 300 | 1900 ± 455 | 67 ± 18 | 35500 ± 12800 |  |
| Ape-MnP1 (Agrocybe pediades) (protein) TICADGTSVANGACCKLIPVVKDLTENLFEGECGDAAHGALRLVFHDAIAISPTLGGGGADGSIAVFNATELTFHANTGIDDVLDAVGPFLLKHSDVMTPGDFIQLAGAVSLTQCNGAPRVKFVMGRPPPKAAAPNLLVPEPFDSVATILQRFGELGFTKEETVAVIGGSHSVAGADDIVPNEQGIPFDQTPSIFDTQIFVDVQLRGTMIPGNGTTEGEVETAVPGTVRLQSDHLLARDASTSCIWQSFVNQQSKMAQVFGEAIFKMSLLGQTQSKLIDCSEVIPRAIPFSHGPATLPPGQTLKDIEQACAASPFPTLSTQPGPVTSVPAIPQADDS |  |  |  |  |  |  | Km [5]: 2880 ± 490 µM; kcat [5]: 11.5 ± 0.8 s⁻¹; kcat/Km [5]: 4200 ± 500 M⁻¹ s⁻¹; Km [6]: 2730 ± 280 µM; kcat [6]: 146 ± 6 s⁻¹; kcat/Km [6]: 53000 ± 6000 M⁻¹ s⁻¹ |
